± gives the standard deviation of the averaged measurements.
B1: library; numbered along this chain (parent)
chain: MNIQIGELAKRTACPVVTIRFYEQEGLLPPPGRSRGNFRLYGEEHVERLQFIRHCRSLDMPLSDVRTLLSYRKRPDQDCGEVNMLLDEHIRQVESRIGALLELKHHLVELREACSGARPAQSCGILQGLSDCVCDTRGTTAHPSD

Legend:
[1] = variants of: B1; assay: sfGFP reporter fluorescence (15 h) (µM FITC); higher = higher leak; details: library round: Round 0; ligand: none
Method in brief: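 With 1 µM lead chloride, 30 µM zinc acetate or no metal present, 1 μL Echo-assembled reactions were incubated 15 hr at 30 °C. They contained BL21 Star (DE3) PANOx-SP extract, 30 μg/mL GamS, the pPbrR-sfGFP reporter plasmid and PCR-made linear PbrR templates Echo-normalized to 5 nM. Endpoint sfGFP fluorescence was read on a Synergy Neo2 at 485/528 nm against FITC standards in 50 mM sodium borate pH 8.5. Results are expressed as µM FITC.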

[2] = variants of: B1; assay: sfGFP reporter fluorescence (15 h) (µM FITC); higher = stronger transcriptional activation; details: library round: Round 0
Protocol: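 Cell-free (BL21 Star DE3 extract, PANOx-SP) biosensing: 1 µL Echo-assembled reactions with linear PbrR variant templates (5 nM) and pPbrR-sfGFP reporter, with 1 µM Pb (lead chloride), 30 µM Zn (zinc acetate) or no ligand; endpoint sfGFP fluorescence after 15 h at 30 °C, calibrated as µM FITC. Round 0 library (alanine scan, site saturation, combinatorial) of PbrR from Cupriavidus metallidurans; 2 biological replicates.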

| Variant | sfGFP reporter fluorescence [1] | sfGFP reporter fluorescence ([2]; ligand: 1 µM Pb) | sfGFP reporter fluorescence ([2]; ligand: 30 µM Zn) |
| --- | --- | --- | --- |
| M60L P61N K104V L107C | 0.535 ± 0.018 | 1.66 ± 1.4 | 3.35 ± 0.1 |
| K104G | 0.0526 ± 0.0075 | 0.0524 ± 0.0057 | 0.22 ± 0.0034 |
| K104H | 0.0762 ± 0.0036 | 0.189 ± 0.081 | 1.56 ± 0.38 |
| K104V | 0.0652 ± 0.0088 | 0.173 ± 0.039 | 1.35 ± 0.19 |
| K104R | 0.0621 ± 0.006 | 0.0958 ± 0.024 | 0.946 ± 0.16 |
| K104E | 0.0552 ± 0.0086 | 0.0691 ± 0.015 | 0.635 ± 0.12 |
| L27G | 0.0608 ± 0.001 | 0.0597 ± 0.0015 | 0.0649 ± 0.0036 |
| L27C | 0.06285 ± 0.00026 | 0.0641 ± 0.001 | 0.142 ± 0.0023 |
| L27T | 0.0621 ± 0.0013 | 0.06029 ± 0.00026 | 0.0594 ± 0.0026 |
| L27H | 0.0623 ± 0.0015 | 0.06322 ± 0.00026 | 0.0762 ± 0.001 |
| M60L P61N D64K G128I | 0.944 ± 0.037 | 3.29 ± 0.078 | 3.77 ± 0.81 |
| P61Q | 0.0755 ± 0.0015 | 0.148 ± 0.0065 | 1.07 ± 0.024 |
| P61R | 0.0715 ± 0.0031 | 0.1231 ± 0.00052 | 1.42 ± 0.021 |
| P61L | 0.0638 ± 0.0026 | 0.0823 ± 0.0039 | 0.191 ± 0.0057 |
| P61D | 0.0729 | 0.123 ± 0.0044 | 0.709 ± 0.02 |
| P61C | 0.0755 ± 0.001 | 0.193 ± 0.0083 | 1.78 ± 0.031 |
| P61E | 0.0693 | 0.0991 ± 0.0049 | 0.338 ± 0.042 |
| I125A | 0.0572 ± 0.0042 | 0.0553 ± 0.0021 | 0.0585 ± 0.0023 |
| I125W | 0.0588 ± 0.0018 | 0.0596 ± 0.0013 | 0.0564 ± 0.0026 |
| I125V | 0.0583 | 0.0627 | 0.183 ± 0.0036 |
| I125G | 0.0546 | 0.0559 ± 0.00078 | 0.0504 ± 0.0029 |
| I125S | 0.0597 ± 0.0021 | 0.0574 ± 0.0013 | 0.0568 ± 0.0021 |

| Variant | sfGFP reporter fluorescence [1] | sfGFP reporter fluorescence ([2]; ligand: 1 µM Pb) | sfGFP reporter fluorescence ([2]; ligand: 30 µM Zn) |
| --- | --- | --- | --- |
| M60L P61N G128I | 0.436 ± 0.043 | 1.55 ± 0.032 | 3.7563 ± 0.0021 |
| L49A | 0.0619 ± 0.001 | 0.0614 ± 0.0013 | 0.0969 ± 0.011 |
| C55S | 0.06029 ± 0.00026 | 0.066 ± 0.001 | 0.203 ± 0.019 |
| I5A | 0.0515 ± 0.0039 | 0.05186 ± 0.00026 | 0.0817 ± 0.0036 |
| L129G | 0.0526 ± 0.00078 | 0.0542 ± 0.001 | 0.0509 ± 0.0021 |
| L129V | 0.0557 ± 0.001 | 0.05717 ± 0.00052 | 0.05351 ± 0.00052 |
| I3M | 0.0641 ± 0.0015 | 0.0768 ± 0.0018 | 1.27 ± 0.15 |
| I3E | 0.061 ± 0.0013 | 0.0601 ± 0.001 | 0.101 ± 0.0013 |
| P143I | 0.05534 ± 0.00052 | 0.0768 ± 0.0023 | 0.801 ± 0.12 |
| P143M | 0.05736 ± 0.00026 | 0.0799 ± 0.001 | 0.812 ± 0.12 |
| R137A | 0.0579 ± 0.0021 | 0.06524 ± 0.00052 | 0.454 ± 0.062 |
| E94N | 0.0607 ± 0.0013 | 0.0755 ± 0.0047 | 0.659 ± 0.026 |
| E94V | 0.059 ± 0.0042 | 0.0847 ± 0.0052 | 0.739 ± 0.052 |
| L107Y | 0.0603 ± 0.0013 | 0.06762 ± 0.00026 | 0.209 ± 0.0091 |
| L107Q | 0.0579 ± 0.0047 | 0.08521 ± 0.00078 | 0.764 ± 0.047 |
| R91A | 0.0618 ± 0.00078 | 0.0724 ± 0.0029 | 0.6942 ± 0.0015 |
| T67A | 0.06047 ± 0.00052 | 0.0709 ± 0.0018 | 0.381 ± 0.063 |
| P15H | 0.0667 ± 0.001 | 0.092 ± 0.0052 | 0.706 ± 0.044 |
| D135G | 0.0531 | 0.0764 ± 0.0023 | 0.802 ± 0.074 |
| D135W | 0.0737 ± 0.0036 | 0.146 ± 0.012 | 1.83 ± 0.17 |
| L58C | 0.05846 ± 0.00026 | 0.05772 ± 0.00026 | 0.06121 ± 0.00052 |
| M60L D64K K104V G128I | 2.23 ± 0.091 | 3.3 ± 0.69 | 4.17 ± 0.28 |

| Variant | sfGFP reporter fluorescence [1] | sfGFP reporter fluorescence ([2]; ligand: 1 µM Pb) | sfGFP reporter fluorescence ([2]; ligand: 30 µM Zn) |
| --- | --- | --- | --- |
| F21P | 0.0619 | 0.0603 ± 0.0018 | 0.0629 ± 0.0018 |
| F21E | 0.0596 ± 0.00078 | 0.06175 ± 0.00026 | 0.0608 ± 0.0015 |
| F21N | 0.0605 ± 0.0015 | 0.0605 ± 0.0021 | 0.06267 ± 0.00052 |
| F21T | 0.0601 ± 0.0015 | 0.06121 ± 0.00052 | 0.06066 ± 0.00026 |
| E81A | 0.0612 ± 0.001 | 0.0792 ± 0.0047 | 0.655 ± 0.13 |
| V82P | 0.057 ± 0.00078 | 0.05754 ± 0.00052 | 0.0577 ± 0.0013 |
| V82E | 0.0568 ± 0.0026 | 0.0586 ± 0.0015 | 0.0541 ± 0.0029 |
| V82Q | 0.0579 ± 0.0021 | 0.05699 ± 0.00026 | 0.0552 ± 0.0013 |
| R39Y | 0.05992 ± 0.00026 | 0.0605 ± 0.0036 | 0.0608 ± 0.0047 |
| R39Q | 0.0612 ± 0.001 | 0.0599 ± 0.0018 | 0.0583 ± 0.001 |
| R39C | 0.0599 ± 0.0013 | 0.061 ± 0.00078 | 0.057 ± 0.0029 |
| R39F | 0.0597 ± 0.001 | 0.0588 ± 0.0013 | 0.0555 ± 0.0018 |
| R39W | 0.05956 ± 0.00026 | 0.0599 ± 0.00078 | 0.06011 ± 0.00052 |
| R39D | 0.0603 ± 0.0018 | 0.0608 ± 0.0026 | 0.0597 ± 0.0036 |
| P61N D64K L107C G128I | 3.28 ± 0.15 | 4.88 ± 0.7 | 4.54 ± 0.044 |
| E43T | 0.06341 ± 0.00052 | 0.104 ± 0.0054 | 1.5 ± 0.14 |
| E43Y | 0.0599 ± 0.00078 | 0.0924 ± 0.017 | 1.2 ± 0.058 |
| E43C | 0.06066 ± 0.00026 | 0.0887 ± 0.0042 | 0.481 ± 0.018 |
| E43H | 0.0669 ± 0.00078 | 0.0891 ± 0.013 | 0.629 ± 0.0098 |
| E43A | 0.06304 ± 0.00052 | 0.0969 ± 0.0044 | 1.66 ± 0.077 |
| E43V | 0.0605 ± 0.0015 | 0.0883 ± 0.014 | 1.17 ± 0.089 |
| Y22I | 0.0605 ± 0.0015 | 0.0583 ± 0.0015 | 0.0564 ± 0.0036 |

| Variant | sfGFP reporter fluorescence [1] | sfGFP reporter fluorescence ([2]; ligand: 1 µM Pb) | sfGFP reporter fluorescence ([2]; ligand: 30 µM Zn) |
| --- | --- | --- | --- |
| Y22M | 0.0638 ± 0.001 | 0.0612 ± 0.0031 | 0.064 ± 0.0013 |
| Y22H | 0.063 ± 0.0015 | 0.06249 ± 0.00026 | 0.0651 ± 0.0018 |
| Y22W | 0.0658 ± 0.0029 | 0.142 ± 0.00026 | 2.1 ± 0.13 |
| Y22E | 0.06157 ± 0.00052 | 0.0621 ± 0.0013 | 0.06011 ± 0.00052 |
| C79S | 0.0592 ± 0.0018 | 0.059 ± 0.001 | 0.055 |
| C79A | 0.05827 ± 0.00052 | 0.055 ± 0.0021 | 0.0585 ± 0.00078 |
| C79Q | 0.05901 ± 0.00052 | 0.05937 ± 0.00052 | 0.0566 ± 0.00078 |
| I90P | 0.0574 ± 0.0029 | 0.0616 ± 0.0015 | 0.151 ± 0.0047 |
| I90T | 0.0608 ± 0.0021 | 0.07953 ± 0.00052 | 0.595 ± 0.007 |
| I90Q | 0.05974 ± 0.00052 | 0.0737 ± 0.0042 | 0.637 ± 0.052 |
| M60L K104V G128I | 0.312 ± 0.017 | 1.27 ± 0.04 | 3.28 ± 0.16 |
| N83R | 0.0625 ± 0.00078 | 0.0775 ± 0.0065 | 0.0883 ± 0.0021 |
| N83V | 0.0577 ± 0.0034 | 0.07623 ± 0.00052 | 0.0588 ± 0.0013 |
| N83K | 0.0603 ± 0.0034 | 0.0663 ± 0.0015 | 0.07532 ± 0.00026 |
| N83T | 0.0607 ± 0.00078 | 0.0759 ± 0.0015 | 0.226 ± 0.047 |
| M60L D64K L107C G128M | 5.61 ± 0.24 | 4.82 ± 0.34 | 4.67 ± 0.83 |
| E109R | 0.06542 ± 0.00026 | 0.102 ± 0.0078 | 1.86 ± 0.052 |
| E109F | 0.0621 ± 0.0013 | 0.09126 ± 0.00052 | 1.32 ± 0.051 |
| E109N | 0.05974 ± 0.00052 | 0.0845 ± 0.0044 | 1.47 ± 0.018 |
| L110A | 0.0727 ± 0.0013 | 0.0698 ± 0.0018 | 0.0729 ± 0.0026 |
| L110N | 0.0579 | 0.05791 ± 0.00052 | 0.0627 |
| L110W | 0.057 ± 0.0018 | 0.0572 ± 0.0015 | 0.0537 ± 0.0023 |
